Numbered stars: 1 amine (or outer) side, 2 acyl side, 3 side chain; on linkers, the order of the positions; unused ones are H or OH. Bridge positions count the residues as written; N and C are the ends. Square brackets hold non-standard residues; d marks the D form. Peptide text beside a SMILES is read from it. * marks the point of attachment. DOTA = O=C(O)CN1CCN(CC(=O)O)CCN(CC(=O)*)CCN(CC(=O)O)CC1; TATA = O=C(CC[*:1])N1CN(C(=O)CC[*:2])CN(C(=O)CC[*:3])C1; Hyp = O=C(O)[C@@H]1C[C@@H](O)CN1; hArg = N=C(N)NCCCC[C@H](N)C(=O)O; Cba = N[C@@H](CC1CCC1)C(=O)O; βAla = NCCC(=O)O; Sar = CNCC(=O)O
Legend:
HT1080 cells = assay: Cell surface binding and internalization assay; format: cell-based, human
Protocol: To assess internalization and specificity, HT1080 cells (10^5 cells/well) were seeded in a 24-well plate coated with poly-L-lysine one day before the experiment. […] To determine specific uptake, 'cold' (non-radiolabeled) BCY18469 was added to half of the wells at an excess concentration of 10 µM/well or, alternatively, the cells were kept at 4 °C during the experiment. Following the incubation, the cells were thoroughly rinsed with cold PBS (3 x 1 mL). Subsequently, surface bound radioactivity was removed by washing with 50 mM glycine (pH 2.8, 2 x 500 µL). Finally, the internalized fraction was determined by lysing the cells with 0.5 M NaOH (500 µL). All fractions were collected and measured using a gamma counter (Perkin Elmer Wizard2, Germany). All counts were standardized to the initial activity, and specific surface binding as well as specific internalization were calculated by subtracting the non-specific binding values obtained from the wells treated with an excess of 'cold' compound. Results were calculated and expressed as %AA/10^5 cells (% applied activity/10^5 cells).

in vivo = settings: mouse; for tissue to tissue ratio at 1 h / tissue to tissue ratio at 2 h / tissue to tissue ratio at 6 h / tissue to tissue ratio at 24 h: iv, 150 pmol
Text: (§1) For the cut and count biodistribution study of [^177Lu]Lu-BCY18469 the HT1080 xenograft model was used. […] (n = 3 mice per time point). Thereafter, mice were dissected, and organs of interest harvested, which included: blood, heart, lung, spleen, liver, kidneys, muscle (quadriceps), intestine, brain, tail, bone (femur) and grafted tumor.

HT1080 tumor xenograft = assay: in vivo; settings: mouse
Text: as §1

[1] = 4°C, block with 10 µM non-labeled compound, listed as 177Lu-BCY18469
[2] = 37°C, 45 min, 30 nM, listed as 177Lu-BCY18469
[3] = total radioactivity, Tumor-to-blood ratio
[4] = total radioactivity, Tumor-to-heart ratio
[5] = total radioactivity, Tumor-to-intestine ratio
[6] = total radioactivity, Tumor-to-kidneys ratio
[7] = total radioactivity, Tumor-to-liver ratio
[8] = total radioactivity, Tumor-to-lung ratio
[9] = total radioactivity, Tumor-to-muscle ratio
[10] = total radioactivity, Tumor-to-spleen ratio
[11] = total radioactivity, Tumor uptake

## CC(C)C[C@@H]1NC(=O)[C@@H]2CSCCC(=O)N3CN(CN(C3)C(=O)CCSC[C@H](NC(=O)[C@H](CC(=O)O)NC(=O)[C@H](CCCCNC(=N)N)NC(=O)[C@H](C)NC(=O)CN(C)C(=O)CN(C)C(=O)CN(C)C(=O)CN(C)C(=O)CN(C)C(=O)CN(C)C(=O)CN(C)C(=O)CN(C)C(=O)CN(C)C(=O)CN(C)C(=O)CCNC(=O)CN3CCN(CC(=O)O)CCN(CC(=O)O)CCN(CC(=O)O)CC3)C(=O)N3C[C@H](O)C[C@H]3C(=O)N[C@@H](CC3CCC3)C(=O)N[C@@H](C(C)C)C(=O)N[C@@H](CC(N)=O)C(=O)N3CCC[C@H]3C(=O)N[C@@H](CC(C)C)C(=O)N2)C(=O)CCSC[C@@H](C(N)=O)NC(=O)[C@H](CCCCNC(=N)N)NC(=O)[C@H](Cc2c[nH]c3ccccc23)NC(=O)[C@@H](CC(=O)O)NC(=O)[C@@H]2CCCN2C(=O)[C@H](Cc2c[nH]cn2)NC1=O [[177Lu]Lu-BCY18469, metal not drawn] ({DOTA-βAla}-[Sar][Sar][Sar][Sar][Sar][Sar][Sar][Sar][Sar][Sar]A[hArg]DC[Hyp][Cba]VNPLCLHP[dD]W[hArg]C-NH2; linker 14-21-28 via TATA)
HT1080 cells; [1]
  Cell Surface B 4°C: 0.05 ± 0.01 %AA/10^5 cells
  Internalization B 4°C: 0.01 ± 0.01 %AA/10^5 cells
HT1080 cells; 4°C, listed as 177Lu-BCY18469
  Cell Surface 4°C: 0.51 ± 0.01 %AA/10^5 cells
  Internalization 4°C: 0.06 ± 0.01 %AA/10^5 cells
HT1080 cells; [2]
  Cell Surface: 0.62 ± 0.03 %AA/10^5 cells
  Internalization: 0.13 ± 0.01 %AA/10^5 cells
HT1080 cells; 37°C, block with 10 µM non-labeled compound
  Cell Surface B: 0.02 ± 0.01 %AA/10^5 cells
HT1080 cells; 37°C, block with 10 µM non-labeled compound, listed as 177Lu-BCY18469
  Internalization B: 0.01 ± 0.01 %AA/10^5 cells
In vivo; Blood uptake
  tissue uptake at 1 h: 0.2 %ID/g
  tissue uptake at 2 h: 0.03 %ID/g
  tissue uptake at 6 h: 0.02 %ID/g
  tissue uptake at 24 h: 0.01 %ID/g
In vivo; Bone uptake
  tissue uptake at 1 h: 0.3 %ID/g
  tissue uptake at 2 h: 0.21 %ID/g
  tissue uptake at 6 h: 0.56 %ID/g
  tissue uptake at 24 h: 0.44 %ID/g
In vivo; Brain uptake
  tissue uptake at 2 h: 0.01 %ID/g
  tissue uptake at 6 h: 0.01 %ID/g
In vivo; Heart uptake
  tissue uptake at 1 h: 0.1 %ID/g
  tissue uptake at 2 h: 0.03 %ID/g
  tissue uptake at 6 h: 0.05 %ID/g
  tissue uptake at 24 h: 0.03 %ID/g
In vivo; Intestine uptake
  tissue uptake at 1 h: 0.34 %ID/g
  tissue uptake at 2 h: 0.16 %ID/g
  tissue uptake at 6 h: 0.15 %ID/g
  tissue uptake at 24 h: 0.1 %ID/g
In vivo; Kidneys uptake
  tissue uptake at 1 h: 65.3 %ID/g
  tissue uptake at 2 h: 47.2 %ID/g
  tissue uptake at 6 h: 62.6 %ID/g
In vivo; Liver uptake
  tissue uptake at 1 h: 0.25 %ID/g
  tissue uptake at 2 h: 0.15 %ID/g
  tissue uptake at 6 h: 0.6 %ID/g
  tissue uptake at 24 h: 0.53 %ID/g
In vivo; Lung uptake
  tissue uptake at 1 h: 0.7 %ID/g
  tissue uptake at 2 h: 0.19 %ID/g
  tissue uptake at 6 h: 0.28 %ID/g
  tissue uptake at 24 h: 0.13 %ID/g
In vivo; Muscle uptake
  tissue uptake at 1 h: 0.06 %ID/g
  tissue uptake at 2 h: 0.02 %ID/g
  tissue uptake at 6 h: 0.03 %ID/g
  tissue uptake at 24 h: 0.02 %ID/g
In vivo; Spleen uptake
  tissue uptake at 1 h: 0.6 %ID/g
  tissue uptake at 2 h: 0.16 %ID/g
  tissue uptake at 6 h: 0.4 %ID/g
  tissue uptake at 24 h: 0.31 %ID/g
In vivo; Tail uptake
  tissue uptake at 1 h: 1.8 %ID/g
  tissue uptake at 2 h: 0.7 %ID/g
  tissue uptake at 6 h: 0.83 %ID/g
  tissue uptake at 24 h: 0.38 %ID/g
In vivo; Tumor uptake
  tissue uptake at 2 h: 9.99 %ID/g
In vivo; [3]
  tissue to tissue ratio at 1 h: 97.5
  tissue to tissue ratio at 2 h: 333
  tissue to tissue ratio at 6 h: 278
  tissue to tissue ratio at 24 h: 177
In vivo; [4]
  tissue to tissue ratio at 1 h: 195
  tissue to tissue ratio at 2 h: 333
  tissue to tissue ratio at 6 h: 111
  tissue to tissue ratio at 24 h: 59
In vivo; [5]
  tissue to tissue ratio at 1 h: 57.4
  tissue to tissue ratio at 2 h: 62.4
  tissue to tissue ratio at 6 h: 37.1
  tissue to tissue ratio at 24 h: 17.7
In vivo; [6]
  tissue to tissue ratio at 1 h: 0.3
  tissue to tissue ratio at 2 h: 0.21
  tissue to tissue ratio at 6 h: 0.09
  tissue to tissue ratio at 24 h: 0.03
In vivo; [7]
  tissue to tissue ratio at 1 h: 78
  tissue to tissue ratio at 2 h: 66.6
  tissue to tissue ratio at 6 h: 9.27
  tissue to tissue ratio at 24 h: 3.34
In vivo; [8]
  tissue to tissue ratio at 1 h: 27.9
  tissue to tissue ratio at 2 h: 52.6
  tissue to tissue ratio at 6 h: 19.9
  tissue to tissue ratio at 24 h: 13.6
In vivo; [9]
  tissue to tissue ratio at 1 h: 325
  tissue to tissue ratio at 2 h: 500
  tissue to tissue ratio at 6 h: 185
  tissue to tissue ratio at 24 h: 88.5
In vivo; [10]
  tissue to tissue ratio at 1 h: 32.5
  tissue to tissue ratio at 2 h: 62.4
  tissue to tissue ratio at 6 h: 13.9
  tissue to tissue ratio at 24 h: 5.71
In vivo; total radioactivity, Kidneys uptake
  tissue uptake at 24 h: 54.9 ± 17.1 %ID/g
In vivo; total radioactivity, Non-target organs uptake
  tissue uptake: ≤ 1 %ID/g
In vivo; [11]
  tissue uptake at 1 h: 19.5 ± 3.5 %ID/g
  tissue uptake at 6 h: 5.56 ± 1.24 %ID/g
  tissue uptake at 24 h: 1.77 ± 0.51 %ID/g
HT1080 tumor xenograft; 1 h
  Brain uptake: 0 %ID/g
HT1080 tumor xenograft; 24 h
  Brain uptake: 0 %ID/g
HT1080 tumor xenograft; iv, 150 pmol, 24 h
  Tumor-to-muscle ratio: 88
